How the values were obtained:
[1] = target: T1, recombinant human transferrin receptor 1 (human, UniProt P02786 89-760); experiment: ELISA, thermal stability d9 (after 9 days at high temperature); printed as 'Binding affinity hTfR1 d9 (nM)'
T1 construct: also called hTfR1; huTfR1
Procedure: (§1) To measure binding of humanized anti-TfR antibodies to TfR1, ELISAs were conducted. High binding, black, flat bottom, 96 well plates (Corning #3925) were first coated with 100 μL/well of recombinant huTfR1 at […] in PBS and incubated at 4° C. overnight. Wells were emptied and residual liquid was removed. Blocking was conducted by adding 200 μL of 1% BSA (w/w) in PBS to each well. Blocking was allowed to proceed for 2 hours at room temperature on a shaker at 300 rpm. After blocking, liquid was removed and wells were washed three times with 300 μL of TBST. Anti-TfR1 antibodies were then added in 0.5% BSA/TBST in triplicate in an 8 point serial dilution (dilution range 5 μg/mL-5 ng/mL). A positive control and isotype controls were also included on the ELISA plate. The plate was incubated at room temperature on an orbital shaker for 60 minutes at 300 rpm, and the plate was washed three times with 300 μL of TBST. Anti-(H+L)IgG-A488 (1:500) (Invitrogen #A11013) was diluted in 0.5% BSA in TBST, and 100 μL was added to each well. The plate was then allowed to incubate at room temperature for 60 minutes at 300 rpm on orbital shaker. The liquid was removed and the plate was washed four times with 300 μL of TBST. Absorbance was then measured at 495 nm excitation and […] (with a 15 nm bandwidth) on a plate reader. Data was recorded and analyzed for EC₅₀. […] ELISA measurements were conducted using cynomolgus monkey (Macaca fascicularis) TfR1 (cTfR1) according to the same protocol described above for hTfR1, and results are shown in FIGS. 1B, 1D, and 1F.

[2] = target: T2, recombinant cynomolgus monkey (Macaca fascicularis) transferrin receptor 1 (cynomolgus monkey (Macaca fascicularis), UniProt Q5RDH6 87-760 (Pongo abelii entry), limits assumed); experiment: ELISA, thermal stability d9 (after 9 days at high temperature); printed as 'Binding affinity cyno TfR1 d9 (nM)'
T2 construct: also called cTfR1; cyno TfR1
T2 chain: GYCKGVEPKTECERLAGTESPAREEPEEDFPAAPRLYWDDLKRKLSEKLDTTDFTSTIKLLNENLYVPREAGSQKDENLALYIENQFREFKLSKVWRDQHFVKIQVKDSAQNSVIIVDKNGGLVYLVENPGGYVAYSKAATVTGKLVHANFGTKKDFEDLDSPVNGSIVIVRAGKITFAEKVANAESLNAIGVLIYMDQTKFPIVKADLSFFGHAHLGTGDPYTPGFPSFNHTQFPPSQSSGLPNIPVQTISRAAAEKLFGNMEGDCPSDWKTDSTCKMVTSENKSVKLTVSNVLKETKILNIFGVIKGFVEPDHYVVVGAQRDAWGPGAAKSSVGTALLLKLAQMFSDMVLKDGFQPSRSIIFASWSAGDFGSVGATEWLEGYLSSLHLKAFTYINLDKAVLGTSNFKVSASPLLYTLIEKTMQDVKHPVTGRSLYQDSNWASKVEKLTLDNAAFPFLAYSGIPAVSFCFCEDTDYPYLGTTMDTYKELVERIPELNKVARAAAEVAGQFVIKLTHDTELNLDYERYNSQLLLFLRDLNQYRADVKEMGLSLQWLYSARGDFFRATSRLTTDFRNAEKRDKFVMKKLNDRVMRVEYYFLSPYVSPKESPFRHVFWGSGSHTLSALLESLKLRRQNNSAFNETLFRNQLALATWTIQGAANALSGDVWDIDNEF
Procedure: The selected Fabs were analyzed for their properties binding to TfR1 by kinetic analysis. For conjugates shown in Table 8 and Table 9, the selected humanized Fabs were conjugated to a DMPK-targeting oligonucleotide ASO300.
as §1

[3] = target: T1, recombinant human transferrin receptor 1; experiment: ELISA, Fab-ASO300 conjugate; printed as 'DMPK oligo conjugate binding to hTfR1 (nM)'
[4] = target: T2, recombinant cynomolgus monkey (Macaca …); experiment: ELISA, Fab-ASO300 conjugate; printed as 'DMPK oligo conjugate binding to cyno TfR1 (nM)'

T1 sequence (P02786 89-760 limits assumed): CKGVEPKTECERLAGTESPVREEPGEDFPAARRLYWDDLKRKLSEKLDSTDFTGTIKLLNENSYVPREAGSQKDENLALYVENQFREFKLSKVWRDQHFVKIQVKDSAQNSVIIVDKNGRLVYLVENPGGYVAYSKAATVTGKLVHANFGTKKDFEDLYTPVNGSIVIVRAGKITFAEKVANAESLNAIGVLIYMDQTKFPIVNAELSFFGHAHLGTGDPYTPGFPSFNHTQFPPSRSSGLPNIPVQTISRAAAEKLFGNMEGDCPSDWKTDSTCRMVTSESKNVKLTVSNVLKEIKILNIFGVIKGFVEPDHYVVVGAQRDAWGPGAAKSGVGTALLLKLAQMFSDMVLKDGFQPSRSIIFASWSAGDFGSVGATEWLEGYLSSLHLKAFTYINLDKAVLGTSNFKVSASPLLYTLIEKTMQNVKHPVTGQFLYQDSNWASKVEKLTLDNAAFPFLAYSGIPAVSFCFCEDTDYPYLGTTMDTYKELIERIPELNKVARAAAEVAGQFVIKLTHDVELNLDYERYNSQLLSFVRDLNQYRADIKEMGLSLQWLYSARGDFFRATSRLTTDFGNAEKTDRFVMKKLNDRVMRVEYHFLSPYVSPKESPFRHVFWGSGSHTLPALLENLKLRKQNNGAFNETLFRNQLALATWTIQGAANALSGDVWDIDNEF

B1: humanized anti-TfR Fab 3M12 (VH3/Vk2) (Fab, V domains shown)
VH: QVQLQESGPGLVKPSQTLSLTCSVTGYSITSGYYWNWIRQPPGKGLEWMGYITFDGANNYNPSLKNRVSISRDTSKNQFSLKLSSVTAEDTATYYCTRSSYDYDVLDYWGQGTTVTVSS
VL: DIQMTQSPSSLSASVGDRVTITCRASQDISNFLNWYQQKPGQPVKLLIYYTSRLHSGVPSRFSGSGSGTDFTLTISSLQPEDFATYFCQQGHTLPYTFGQGTKLEIKR
notes: unconjugated; also called 3M12 VH3/Vκ2
[1]
  EC50: 0.98 nM
[2]
  EC50: 19.5 nM

B2: 3M12 (VH3/Vk2) Fab conjugated to DMPK-targeting oligonucleotide ASO300 (Fab, V domains shown)
VH: QVQLQESGPGLVKPSQTLSLTCSVTGYSITSGYYWNWIRQPPGKGLEWMGYITFDGANNYNPSLKNRVSISRDTSKNQFSLKLSSVTAEDTATYYCTRSSYDYDVLDYWGQGTTVTVSS
VL: DIQMTQSPSSLSASVGDRVTITCRASQDISNFLNWYQQKPGQPVKLLIYYTSRLHSGVPSRFSGSGSGTDFTLTISSLQPEDFATYFCQQGHTLPYTFGQGTKLEIKR
modifications: ASO300 oligonucleotide covalently conjugated via linker of Formula (C); residue and chain not stated
notes: also called 3M12 (VH3/Vk2) conjugate; DMPK oligo conjugate
[3]
  EC50: 1.14 nM
[4]
  EC50: 2.26 nM

B3: 3M12 (VH4/Vk3) Fab conjugated to DMPK-targeting oligonucleotide ASO300 (Fab, V domains shown)
VH: QVQLQESGPGLVKPSQTLSLTCTVTGYSITSGYYWNWIRQPPGKGLEWIGYITFDGANNYNPSLKNRVSISRDTSKNQFSLKLSSVTAEDTATYYCTRSSYDYDVLDYWGQGTTVTVSS
VL: DIQMTQSPSSLSASVGDRVTITCRASQDISNFLNWYQQKPGQPVKLLIYYTSRLHSGVPSRFSGSGSGTDFTLTISSLQPEDFATYYCQQGHTLPYTFGQGTKLEIKR
modifications: ASO300 oligonucleotide covalently conjugated via linker of Formula (C); residue and chain not stated
notes: also called 3M12 (VH4/Vk3) conjugate; DMPK oligo conjugate
[3]
  EC50: 1.18 nM
[4]
  EC50: 1.85 nM

B4: humanized anti-TfR Fab 3M12 (VH4/Vk2) (Fab, V domains shown)
VH: QVQLQESGPGLVKPSQTLSLTCTVTGYSITSGYYWNWIRQPPGKGLEWIGYITFDGANNYNPSLKNRVSISRDTSKNQFSLKLSSVTAEDTATYYCTRSSYDYDVLDYWGQGTTVTVSS
VL: DIQMTQSPSSLSASVGDRVTITCRASQDISNFLNWYQQKPGQPVKLLIYYTSRLHSGVPSRFSGSGSGTDFTLTISSLQPEDFATYFCQQGHTLPYTFGQGTKLEIKR
notes: unconjugated; also called 3M12 VH4/Vκ2
[1]
  EC50: 0.5 nM
[2]
  EC50: 5.01 nM

B5: humanized anti-TfR Fab 3M12 (VH4/Vk3) (Fab, V domains shown)
VH: QVQLQESGPGLVKPSQTLSLTCTVTGYSITSGYYWNWIRQPPGKGLEWIGYITFDGANNYNPSLKNRVSISRDTSKNQFSLKLSSVTAEDTATYYCTRSSYDYDVLDYWGQGTTVTVSS
VL: DIQMTQSPSSLSASVGDRVTITCRASQDISNFLNWYQQKPGQPVKLLIYYTSRLHSGVPSRFSGSGSGTDFTLTISSLQPEDFATYYCQQGHTLPYTFGQGTKLEIKR
notes: unconjugated; also called 3M12 VH4/Vκ3
[1]
  EC50: 0.28 nM
[2]
  EC50: 16.4 nM

B6: humanized anti-TfR Fab 3M12 (VH3/Vk3) (Fab, V domains shown)
VH: QVQLQESGPGLVKPSQTLSLTCSVTGYSITSGYYWNWIRQPPGKGLEWMGYITFDGANNYNPSLKNRVSISRDTSKNQFSLKLSSVTAEDTATYYCTRSSYDYDVLDYWGQGTTVTVSS
VL: DIQMTQSPSSLSASVGDRVTITCRASQDISNFLNWYQQKPGQPVKLLIYYTSRLHSGVPSRFSGSGSGTDFTLTISSLQPEDFATYYCQQGHTLPYTFGQGTKLEIKR
notes: unconjugated; also called 3M12 VH3/Vκ3
[1]
  EC50: 1.49 nM
[2]
  EC50: 15.6 nM

B7: humanized anti-TfR Fab 5H12 (VH5-C33Y/Vk4) (Fab, V domains shown)
VH: QVQLVQSGAEVKKPGASVKVSCKASGYSFTDYYINWVRQAPGQGLEWMGWIYPGSGNTRYSERFKGRVTITRDTSASTAYMELSSLRSEDTAVYYCAREDYYPYHGMDYWGQGTLVTVSS
VL: DIVMTQSPDSLAVSLGERATINCRASESVDGYDNSFMHWYQQKPGQPPKLLIFRASNLESGVPDRFSGSGSGTDFTLTISSLQAEDVAVYYCQQSSEDPWTFGQGTKLEIKR
notes: unconjugated; also called 5H12 VH5 (C33Y*)/Vκ4
[1]
  EC50: 1730 nM
[2]
  EC50: 0.26 nM

B8: humanized anti-TfR Fab 5H12 (VH5-C33D/Vk4) (Fab, V domains shown)
VH: QVQLVQSGAEVKKPGASVKVSCKASGYSFTDYDINWVRQAPGQGLEWMGWIYPGSGNTRYSERFKGRVTITRDTSASTAYMELSSLRSEDTAVYYCAREDYYPYHGMDYWGQGTLVTVSS
VL: DIVMTQSPDSLAVSLGERATINCRASESVDGYDNSFMHWYQQKPGQPPKLLIFRASNLESGVPDRFSGSGSGTDFTLTISSLQAEDVAVYYCQQSSEDPWTFGQGTKLEIKR
notes: unconjugated; also called 5H12 VH5 (C33D*)/Vκ4
[1]
  EC50: 92.3 nM
[2]
  EC50: 0.63 nM

B9: humanized anti-TfR Fab 5H12 (VH5-C33Y/Vk3) (Fab, V domains shown)
VH: QVQLVQSGAEVKKPGASVKVSCKASGYSFTDYYINWVRQAPGQGLEWMGWIYPGSGNTRYSERFKGRVTITRDTSASTAYMELSSLRSEDTAVYYCAREDYYPYHGMDYWGQGTLVTVSS
VL: DIVLTQSPDSLAVSLGERATINCRASESVDGYDNSFMHWYQQKPGQPPKLLIFRASNLESGVPDRFSGSGSRTDFTLTISSLQAEDVAVYYCQQSSEDPWTFGQGTKLEIKR
notes: unconjugated; also called 5H12 VH5 (C33Y*)/Vκ3
[1]
  EC50: 71.9 nM
[2]
  EC50: 0.69 nM

B10: humanized anti-TfR Fab 3A4 (VH3-N54T/Vk4) (Fab, V domains shown)
VH: EVQLVQSGSELKKPGASVKVSCTASGFNIKDDYMYWVRQPPGKGLEWIGWIDPETGDTEYASKFQDRVTVTADTSTNTAYMELSSLRSEDTAVYYCTLWLRRGLDYWGQGTLVTVSS
VL: DIVMTQSPLSLPVTPGEPASISCRSSKSLLHSNGYTYLFWFQQRPGQSPRLLIYRMSNLASGVPDRFSGSGSGTDFTLKISRVEAEDVGVYYCMQHLEYPFTFGGGTKVEIKR
notes: unconjugated; also called 3A4 VH3 (N54T*)/Vκ4
[1]
  EC50: 0.4 nM
[2]
  EC50: 128 nM

B11: 3A4 (VH3-N54T/Vk4) Fab conjugated to DMPK-targeting oligonucleotide ASO300 (Fab, V domains shown)
VH: EVQLVQSGSELKKPGASVKVSCTASGFNIKDDYMYWVRQPPGKGLEWIGWIDPETGDTEYASKFQDRVTVTADTSTNTAYMELSSLRSEDTAVYYCTLWLRRGLDYWGQGTLVTVSS
VL: DIVMTQSPLSLPVTPGEPASISCRSSKSLLHSNGYTYLFWFQQRPGQSPRLLIYRMSNLASGVPDRFSGSGSGTDFTLKISRVEAEDVGVYYCMQHLEYPFTFGGGTKVEIKR
modifications: ASO300 oligonucleotide covalently conjugated via linker of Formula (C); residue and chain not stated
notes: also called 3A4 (VH3-N54T/Vk4) conjugate; DMPK oligo conjugate
[3]
  EC50: 2.22 nM
[4]
  EC50: 5.12 nM

B12: 3A4 (VH3-N54S/Vk4) Fab conjugated to DMPK-targeting oligonucleotide ASO300 (Fab, V domains shown)
VH: EVQLVQSGSELKKPGASVKVSCTASGFNIKDDYMYWVRQPPGKGLEWIGWIDPESGDTEYASKFQDRVTVTADTSTNTAYMELSSLRSEDTAVYYCTLWLRRGLDYWGQGTLVTVSS
VL: DIVMTQSPLSLPVTPGEPASISCRSSKSLLHSNGYTYLFWFQQRPGQSPRLLIYRMSNLASGVPDRFSGSGSGTDFTLKISRVEAEDVGVYYCMQHLEYPFTFGGGTKVEIKR
modifications: ASO300 oligonucleotide covalently conjugated via linker of Formula (C); residue and chain not stated
notes: also called 3A4 (VH3-N54S/Vk4) conjugate; DMPK oligo conjugate
[3]
  EC50: 2.71 nM
[4]
  EC50: 4.1 nM

B13: humanized anti-TfR Fab 3A4 (VH3-N54S/Vk4) (Fab, V domains shown)
VH: EVQLVQSGSELKKPGASVKVSCTASGFNIKDDYMYWVRQPPGKGLEWIGWIDPESGDTEYASKFQDRVTVTADTSTNTAYMELSSLRSEDTAVYYCTLWLRRGLDYWGQGTLVTVSS
VL: DIVMTQSPLSLPVTPGEPASISCRSSKSLLHSNGYTYLFWFQQRPGQSPRLLIYRMSNLASGVPDRFSGSGSGTDFTLKISRVEAEDVGVYYCMQHLEYPFTFGGGTKVEIKR
notes: unconjugated; also called 3A4 VH3 (N54S*)/Vκ4
[1]
  EC50: 0.65 nM
[2]
  EC50: 248 nM

B14: humanized anti-TfR Fab 3A4 (VH3/Vk4) (Fab, V domains shown)
VH: EVQLVQSGSELKKPGASVKVSCTASGFNIKDDYMYWVRQPPGKGLEWIGWIDPENGDTEYASKFQDRVTVTADTSTNTAYMELSSLRSEDTAVYYCTLWLRRGLDYWGQGTLVTVSS
VL: DIVMTQSPLSLPVTPGEPASISCRSSKSLLHSNGYTYLFWFQQRPGQSPRLLIYRMSNLASGVPDRFSGSGSGTDFTLKISRVEAEDVGVYYCMQHLEYPFTFGGGTKVEIKR
notes: unconjugated; also called 3A4 VH3 /Vκ4
[1]
  EC50: 0.46 nM
[2]
  EC50: 878 nM

From patent US20230044278A1 (DYNE THERAPEUTICS, published 2023)
